According to patent US6468985B1, “Retinoblastoma protein-interacting zinc finger proteins” (The Burnham Institute, priority 1994, dated 2002):

Columns and labels:
[1] = target: T1, RIZ GTPase domain (GST-G) (Rattus norvegicus, UniProt Q63755); test: competition of unlabeled nucleotides for GTP binding of RIZ GTPase domain; conditions: 20 mM unlabeled nucleotide, 1 hr before α-32P-GTP
T1 construct: a fragment of RIZ from amino acid position 760-949 (RIZ 760-949), containing the putative GTPase domain; made in house; E. coli XL-1 blue is printed only for pKG7.1S)
T1 sequence (Q63755 760-949): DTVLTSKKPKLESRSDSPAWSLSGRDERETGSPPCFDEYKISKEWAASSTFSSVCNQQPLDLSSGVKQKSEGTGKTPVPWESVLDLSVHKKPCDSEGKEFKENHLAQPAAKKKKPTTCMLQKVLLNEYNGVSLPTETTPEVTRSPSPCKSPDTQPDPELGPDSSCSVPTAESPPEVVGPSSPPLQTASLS
Protocol: The GTPase domain of RIZ, which was defined by sequence homology, was evaluated to determine if it was functionally active. For these studies, a fragment of RIZ from amino acid position 760-949 (RIZ 760-949), containing the putative GTPase domain was expressed as a fusion to GST from the plasmid pKG-G and tested for binding to radiolabeled nucleotides. pKG-G was produced by PCR amplification of the nucleotide sequence encoding RIZ (760-949) using primers 5′-TCTCCACAGC ACAGCCCT-3′ (SEQ ID NO: 15), and 5′-GGATAAGGAG GCTGTCTG-3′ (SEQ ID NO: 16) and PCMVRIZ as template. The fragment was cloned into pBSK+ and then into PGEX-KG, expressed and purified by glutathionine-agarose as described above. GST was also expressed from vector PGEX-KG and purified as described above.
To measure GTP-binding, 0.5 μg of GST-RIZ or control GST proteins were separated by SDS-PAGE and blotted onto nitrocellulose. Proteins were renatured in GTP-binding buffer (50 mM Tris-HCl, pH8, 100 mM KCl, 10% glycerol, 0.1% Triton X-100, and 2 mM […]). The nitrocellulose was incubated for 30 min in GTP-binding buffer and then for 2 hr in GTP-binding buffer containing 1 μM α-^32P-GTP (800 Ci/mmol). The nitrocellulose was washed 5 times in GTP-binding buffer, dried and autoradiographed. In some samples, 20 mM unlabeled nucleotides were incubated with the nitrocellulose for 1 hr prior to the addition of α-^32P-GTP.

[2] = target: T2, Rb from HT1080 cell extract (Homo sapiens, UniProt P06400); test: GST-RIZ (215-462) glutathione-agarose pull-down of Rb from cell extract, anti-Rb immunoblot; assay type: binding; conditions: cell lysate from 293 stably transfected to express E1A as source
T2 construct: endogenous in cells; host or cells: HT1080 cells (lysate)
T2 sequence (P06400 1-928): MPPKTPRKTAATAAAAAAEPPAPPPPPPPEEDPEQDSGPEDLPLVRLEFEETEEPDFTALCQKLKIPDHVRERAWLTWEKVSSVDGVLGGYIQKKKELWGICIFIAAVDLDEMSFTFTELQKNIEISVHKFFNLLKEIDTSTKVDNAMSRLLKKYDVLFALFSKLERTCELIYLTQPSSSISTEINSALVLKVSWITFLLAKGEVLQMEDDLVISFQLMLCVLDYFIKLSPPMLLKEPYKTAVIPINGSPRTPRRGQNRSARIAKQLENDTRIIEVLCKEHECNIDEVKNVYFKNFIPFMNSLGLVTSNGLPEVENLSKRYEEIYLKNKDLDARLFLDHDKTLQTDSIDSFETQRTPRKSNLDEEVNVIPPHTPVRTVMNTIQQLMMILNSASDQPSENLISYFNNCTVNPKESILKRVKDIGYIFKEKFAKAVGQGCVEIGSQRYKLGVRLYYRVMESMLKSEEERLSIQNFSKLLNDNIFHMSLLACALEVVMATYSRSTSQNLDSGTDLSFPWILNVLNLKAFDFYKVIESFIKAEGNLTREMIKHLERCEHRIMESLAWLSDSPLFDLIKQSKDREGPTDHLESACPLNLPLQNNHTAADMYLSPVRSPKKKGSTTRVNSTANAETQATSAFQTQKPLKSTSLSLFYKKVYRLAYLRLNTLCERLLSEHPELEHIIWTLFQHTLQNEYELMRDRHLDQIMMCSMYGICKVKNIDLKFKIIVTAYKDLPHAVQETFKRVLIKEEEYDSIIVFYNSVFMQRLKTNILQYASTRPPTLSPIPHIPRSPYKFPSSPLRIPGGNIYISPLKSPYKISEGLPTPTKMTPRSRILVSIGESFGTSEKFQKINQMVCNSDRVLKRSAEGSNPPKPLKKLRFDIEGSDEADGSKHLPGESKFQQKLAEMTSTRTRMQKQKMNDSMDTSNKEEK
Protocol: Rat RIZ was tested for binding to Rb in HT1080 cells (ATCC #ICCL 121). The cells were grown in DMEM supplemented with […]. Cells were lysed in ELB buffer (50 mM HEPES, pH 7.5, 250 mM NaCl, 0.1% NP-40) supplemented with 5 mM EDTA, 50 mM NaF, 1 mM Na orthovanadate, 1 mM of DTT, aprotinin, leupeptin, and PMSF. The lysate was cleared of cell debris by centrifugation at 12,000 rpm for 10 min in a microfuge.
Binding between 4 μg GST-RIZ (215-462) and Rb from HT1080 cell extract was evaluated by first mixing the two, then binding GST-RIZ and any associated Rb to glutathione-agarose beads. The beads were washed in binding buffer and the bound complexes were eluted by boiling in SDS buffer and analyzed by immunoblotting with anti-Rb antiserum. Immunoblotting was performed by standard techniques (see, for example, Harlow and Lane, supra, 1988).

[3] = target: T3, 56 kD fragment of Rb produced by bacterial expression from p56Rb plasmid (UniProt P06400 379-928); test: peptide competition against labeled RIZ (1-575) for 56 kD Rb
T3 construct: range 379-928; Expressed in E. coli; also called 56 kD Rb
T3 sequence (looked up): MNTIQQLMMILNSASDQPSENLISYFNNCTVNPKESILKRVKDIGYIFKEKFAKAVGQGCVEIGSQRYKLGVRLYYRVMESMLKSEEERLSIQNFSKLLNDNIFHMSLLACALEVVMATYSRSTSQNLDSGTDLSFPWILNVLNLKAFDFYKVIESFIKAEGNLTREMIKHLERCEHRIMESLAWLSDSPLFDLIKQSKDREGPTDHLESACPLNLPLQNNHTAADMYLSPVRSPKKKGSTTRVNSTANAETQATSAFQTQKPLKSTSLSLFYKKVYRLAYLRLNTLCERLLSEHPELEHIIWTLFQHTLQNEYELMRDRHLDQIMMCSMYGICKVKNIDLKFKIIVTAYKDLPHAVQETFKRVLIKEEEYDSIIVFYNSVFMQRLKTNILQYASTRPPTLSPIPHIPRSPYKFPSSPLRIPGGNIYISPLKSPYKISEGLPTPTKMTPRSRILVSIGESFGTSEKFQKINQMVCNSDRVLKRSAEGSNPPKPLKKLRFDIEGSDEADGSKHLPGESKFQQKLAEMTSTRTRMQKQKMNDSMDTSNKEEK

[4] = target: T4, wild-type full length Rb (A9), 35S-labeled (UniProt P06400 2-928, limits assumed, 35S label); test: immunoprecipitation with anti-RIZ antiserum, SDS-PAGE, autoradiography
T4 construct: mature; also called wt-Rb; wild-type Rb
T4 sequence (looked up): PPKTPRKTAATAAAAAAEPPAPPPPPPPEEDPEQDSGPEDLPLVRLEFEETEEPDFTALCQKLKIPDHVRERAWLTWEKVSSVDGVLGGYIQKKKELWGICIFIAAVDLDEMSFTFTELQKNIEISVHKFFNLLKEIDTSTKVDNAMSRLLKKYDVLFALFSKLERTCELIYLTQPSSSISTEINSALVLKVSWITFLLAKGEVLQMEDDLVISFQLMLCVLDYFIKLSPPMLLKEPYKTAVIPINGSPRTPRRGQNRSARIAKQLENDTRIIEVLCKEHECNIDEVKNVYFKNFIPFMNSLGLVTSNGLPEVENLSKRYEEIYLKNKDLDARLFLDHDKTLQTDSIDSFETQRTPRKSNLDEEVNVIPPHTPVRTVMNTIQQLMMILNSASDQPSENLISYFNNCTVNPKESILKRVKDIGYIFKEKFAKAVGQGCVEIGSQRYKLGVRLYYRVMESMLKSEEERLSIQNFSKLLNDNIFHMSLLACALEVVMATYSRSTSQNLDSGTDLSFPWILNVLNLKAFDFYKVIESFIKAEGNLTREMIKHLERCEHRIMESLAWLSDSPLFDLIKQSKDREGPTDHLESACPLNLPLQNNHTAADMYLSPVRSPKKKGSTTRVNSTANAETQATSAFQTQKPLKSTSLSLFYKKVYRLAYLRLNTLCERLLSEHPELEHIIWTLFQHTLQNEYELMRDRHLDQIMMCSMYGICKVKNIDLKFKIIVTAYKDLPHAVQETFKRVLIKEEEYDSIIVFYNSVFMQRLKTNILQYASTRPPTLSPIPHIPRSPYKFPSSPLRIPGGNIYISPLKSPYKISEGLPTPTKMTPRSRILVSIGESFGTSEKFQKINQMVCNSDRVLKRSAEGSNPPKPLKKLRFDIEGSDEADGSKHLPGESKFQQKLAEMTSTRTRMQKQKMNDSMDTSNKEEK

[5] = target: T4, wild-type full length Rb (A9), …; test: 35S-labeled full-length Rb preincubated with RIZ (215-462), immunoprecipitated with anti-ce1
[6] = target: T4, wild-type full length Rb (A9), …; test: preformed complex tested with anti-ce1

Nc1ncnc2c1ncn2[C@@H]1O[C@H](COP(=O)(O)OP(=O)(O)OP(=O)(O)O)[C@@H](O)[C@H]1O [ATP] was tested, and the “effect of excess unlabeled nucleotide on binding of RIZ GTPase to radiolabeled GTP” value (“effect of excess unlabeled nucleotide” for short) [1] was “did not effect binding”.

O=c1ccn([C@@H]2O[C@H](COP(=O)(O)OP(=O)(O)OP(=O)(O)O)[C@@H](O)[C@H]2O)c(=O)[nH]1 [UTP] was tested, and the “effect of excess unlabeled nucleotide” value [1] was “did not effect binding”.

In the case of Nc1ccn([C@@H]2O[C@H](COP(=O)(O)OP(=O)(O)OP(=O)(O)O)[C@@H](O)[C@H]2O)c(=O)n1 [CTP], the “effect of excess unlabeled nucleotide” value [1] is reported as “did not effect binding”.

“E1A: adenoviral E1A protein; source was cell lysate from 293 stably transfected to express E1A [reference compound]” was tested, and the “inhibition of binding of GST-RIZ (215-462) to hypophosphorylated Rb” value [2] was “inhibited binding”.

In the case of Nc1nc2c(ncn2[C@@H]2O[C@H](COP(=O)(O)OP(=O)(O)OP(=O)(O)O)[C@@H](O)[C@H]2O)c(=O)[nH]1 [GTP], the “effect of excess unlabeled nucleotide” value [1] is reported as “inhibited binding”.

B1: RIZ-Pep, 11 amino acid peptide EIRCEEKPEDL representing a portion of the cr2 motif of RIZ (peptide)
peptide: EIRCEEKPEDL
notes: Synthetic peptide; also called cr2 peptide
B1: binds [3].

B2: glutathionine S-transferase (GST) fused to a fragment of RIZ from amino acid position 245-573 (other)
chain: CEPQPEVDGKQEVTDCEVNDVEEEELEEEEELEEEEEEELGEDGVEEADMPNESSAKEPEIRCEEKPEDLLEEPQSMSNEAREDSPDVTPPPHTPRAREEANGDVLETFMFPCQHCERKFATKQGLERHMHIHISTINHAFKCKYCGKRFGTQINRRRHERRHETGLKRRPSMTLQSSEDPDDGKGENVTSKDESSPPQLGQDCLILNSEKTSQEVLNSSFVEENGEVKELHPCKYCKKVFGTHTNMRRHQRRVHERHLIPKGVRRKGGLLEEPQPPAEQAPPSQNVYVPSTEPEEEGETDDVYIMDISSNISENLNYYIDGKIQTNSS
notes: Expressed from pKG7.1S in E. coli and purified on glutathione agarose; also called GSTZ13; not shown: glutathione S-transferase from vector pGEX-KG
B2: binds [4].

B3: RIZ (215-462) with the GST portion removed by thrombin cleavage (other)
chain: PLASAPEQPAPLPEVGNQDAVPQVAIPLPACEPQPEVDGKQEVTDCEVNDVEEEELEEEEELEEEEEEELGEDGVEEADMPNESSAKEPEIRCEEKPEDLLEEPQSMSNEAREDSPDVTPPPHTPRAREEANGDVLETFMFPCQHCERKFATKQGLERHMHIHISTINHAFKCKYCGKRFGTQINRRRHERRHETGLKRRPSMTLQSSEDPDDGKGENVTSKDESSPPQLGQDCLILNSEKTSQEVLN
B3: binds [5].

B4: 35S labeled fragment of RIZ from amino acid position 1-575 (other)
chain: MHQNTESVAATETLAEVPEHVLRGLPEEVRLFPSAVDKTRIGVWATKPILKGKKFGPFVGDKKKRSQVRNNVYMWEVYYPNLGWMCIDATDPEKGNWLRYVNWACSGEEQNLFPLEINRAIYYKTLKPIAPGEELLVWYNGEDNPEIAAAIEEERASARSKRSSPKSRRGKKKSHENKNKGIRTHPTQLKASELDSTFANMRGSAEGPKEEDERPLASAPEQPAPLPEVGNQDAVPQVAIPLPACEPQPEVDGKQEVTDCEVNDVEEEELEEEEELEEEEEEELGEDGVEEADMPNESSAKEPEIRCEEKPEDLLEEPQSMSNEAREDSPDVTPPPHTPRAREEANGDVLETFMFPCQHCERKFATKQGLERHMHIHISTINHAFKCKYCGKRFGTQINRRRHERRHETGLKRRPSMTLQSSEDPDDGKGENVTSKDESSPPQLGQDCLILNSEKTSQEVLNSSFVEENGEVKELHPCKYCKKVFGTHTNMRRHQRRVHERHLIPKGVRRKGGLLEEPQPPAEQAPPSQNVYVPSTEPEEEGETDDVYIMDISSNISENLNYYIDGKIQTNSSTS
modifications: 35S label
notes: In vitro transcribed/translated from Spe I linearized template
B4: binds [6].
